We go through one substance from patent US20190117763A1.

The assay concerns the target wildtype PV1 VLPs (74S empty capsids, N-antigenic form) (poliovirus serotype 1 (PV1), Mahoney strain) (UniProt P03300).
UniProt P03300, sequence (P03300 2-341 limits assumed, chain 1 of 3): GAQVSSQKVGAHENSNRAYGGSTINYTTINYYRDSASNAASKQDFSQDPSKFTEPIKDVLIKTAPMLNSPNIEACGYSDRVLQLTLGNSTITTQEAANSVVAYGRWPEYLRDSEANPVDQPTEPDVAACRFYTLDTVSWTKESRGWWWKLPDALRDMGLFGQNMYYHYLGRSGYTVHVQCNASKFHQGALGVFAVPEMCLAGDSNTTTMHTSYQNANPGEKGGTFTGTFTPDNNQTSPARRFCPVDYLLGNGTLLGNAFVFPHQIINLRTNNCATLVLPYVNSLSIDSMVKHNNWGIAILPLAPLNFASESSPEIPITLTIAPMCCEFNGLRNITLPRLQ
UniProt P03300, sequence (P03300 342-579 limits assumed, chain 2 of 3): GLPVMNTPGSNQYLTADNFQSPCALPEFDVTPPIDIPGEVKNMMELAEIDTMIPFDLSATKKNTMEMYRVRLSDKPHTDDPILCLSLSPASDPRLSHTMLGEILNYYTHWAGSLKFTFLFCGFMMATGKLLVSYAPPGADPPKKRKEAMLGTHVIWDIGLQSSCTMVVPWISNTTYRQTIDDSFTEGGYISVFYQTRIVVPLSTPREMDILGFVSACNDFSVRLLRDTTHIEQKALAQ
UniProt P03300, sequence (P03300 580-881 limits assumed, chain 3 of 3): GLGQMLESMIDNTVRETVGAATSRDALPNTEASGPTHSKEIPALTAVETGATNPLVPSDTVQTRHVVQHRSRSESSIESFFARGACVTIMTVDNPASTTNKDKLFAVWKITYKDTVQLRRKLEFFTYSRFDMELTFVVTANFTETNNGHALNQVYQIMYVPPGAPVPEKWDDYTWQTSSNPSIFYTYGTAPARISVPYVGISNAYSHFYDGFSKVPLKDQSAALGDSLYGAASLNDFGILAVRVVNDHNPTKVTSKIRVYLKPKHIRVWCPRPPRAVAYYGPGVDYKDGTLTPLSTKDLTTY

Novus 14D2(7C5) monoclonal antibody came in with a N-antigenic units/µl (N-antigenic units/µl) of 6.15.
